Data as given in patent publication US20020002269A1, “ARTEMIN, A NEUROTROPHIC FACTOR” (priority 1998, published 2002).

B1: GDNF: recombinant human mature GDNF obtained from Genentech (protein, UniProt P39905 78-211, looked up)
Glial cell line-derived …: SPDKQMAVLPRRERNRQAAAANPENSRGKGRRGQRGKNRGCVLTAIHLNVTDLGLGYETKEELIFRYCSGSCDAAETTYDKILKNLSRNRRLVSDKVGQACCRPIAFDDDLSFLDDNLVYHILRKHSAKRCGCI

Experiments:
[1] = molecular target: T1, GFRα1/RET (UniProt P07949+Q62997); assay: Ga14-Elk/Ga14-Luc reporter in RET-3T3 fibroblasts transfected with GFRα1; format: cell-based, rat GFRα1, human RET; details: FIG. 10A; for activation of RET signaling in cells expressing GFRα1/RET (luciferase reporter): RET-3T3, 50 ng/ml for 6-8 hours
T1 construct: expressed in transfected cells; host or cells: MG87 fibroblasts stably expressing human RET (RET-3T3), transiently transfected with the CMV-GFRα1 plasmid
Text: Thus, to directly test which receptor combinations can form functional receptors for artemin, expression plasmids for the individual GFRA coreceptors together with the Ga14-Elk/Ga14-Luc reporter system were transiently transformed into fibroblasts that stably express RET. This system, which utilizes the ability of the Ga14-Elk fusion protein to respond to MAP kinase activity and activate transcription of the Ga14-luciferase reporter, has been used previously to monitor NGF/TrkA activation of the MAP kinase pathway in PC12 cells (Vossler et al., Cell 89:73-82, 1997; York et al., Nature 392:622-626, 1998), and GDNF/RET activation of MAP kinase in neuroblastoma cell lines (Worby et al., 1998, supra; Worby et al., J. Biol. Chem. 271:23619-23622, 1996).
Generation of the expression plasmids for rat GFRα1 and human GFRα2, as well as MG87 fibroblasts stably expressing human RET (RET-3T3), were described in detail previously (Baloh et al., 1997, supra; Creedon et al., 1997, supra). […]
(§1) NLF neuroblastoma cells, which naturally express GFRα2/RET (Tansey et al., submitted), or the RET-3T3 cells were plated at 85,000 cells/well in 12-well plates, and cotransfected with the reporter plasmids Ga14-Luc and CMV-Ga14-Elk (250 ng/well and 50 ng/well, respectively), CMV-lacZ (50 ng/well) for transfection normalization, one of the CMV-GFRA expression plasmids (500 ng/well), and pBluescript (650 ng/well) as carrier for a total of 1.5 μg DNA/well using the Superfect reagent (Qiagen) according to the manufacturer's instructions. […] Measurement of luciferase and β-galactosidase activity was measured using a luminometer and performed as described (Svaren et al., EMBO J 17:6010-6019, 1998). The average luciferase activity of duplicate samples was normalized to β-galactosidase activity of the cotransformed lacZ reporter, and fold activation was calculated by dividing the normalized activity in factor-treated cells by that in the no treatment control.

[2] = molecular target: T2, RET (Rattus norvegicus, UniProt G3V9H8); assay: Western blot of RET phosphorylation and MAP kinase activation in SCG neurons; format: cell-based; details: 50 ng/ml for 20 minutes, FIG. 9A
T2 construct: endogenous in cells
Protocol: In brief, SCG neurons were dissected from postnatal day 1 (P1) rats and maintained in NGF-containing medium for 5 days, after which they were deprived of NGF by switching to NGF-free medium in the presence of anti-NGF antibodies. After 2 hours without NGF, neurons were switched to medium containing NGF, GDNF or artemin at 50 ng/ml for 20 minutes. Cells were washed in cold PBS, and collected in immunoprecipitation buffer (1 mM EDTA/1 mM EGTA/0.2 mM NaVO3/1 mM Pefabloc/1 uM pepstatin A/10 ug/ml leupeptin/2 ug/ml aprotinin/1% Triton X-100/0.5% Nonidet P-40/150 mM NaCl in 10 mM Tris, pH 7.4). The lysates were incubated with 30 μl agarose-conjugated anti-phosphotyrosine antibodies (Calbiochem) at 4° C. for 1 hr. Beads were then washed three times with immunoprecipitation buffer, resuspended in SDS sample buffer, and boiled for 5 min. Samples were separated using SDS-PAGE, and transferred to nitrocellulose membranes. Membranes were blocked for 1 hr at 25° C. in TBS containing 5% dry milk, incubated overnight 4° C. with a 1:300 dilution of anti-Ret antibody (C-19; Santa Cruz), then washed (3× in TBS containing 0.1% Tween-20) and incubated in a 1:10,000 dilution of anti-rabbit antibodies conjugated to HRP (Jackson Immunoresearch). Membranes were washed 3×, incubated with SuperSignal ULTRA (Pierce) for 5 minutes, then exposed to film. For MAP kinase (MAPK) assays, a portion of the total lysate wars removed before immunoprecipitation, separated by SDS-PAGE, and immunoblotted using an anti-phospho-MAP-kinase antibody (New England Biolabs).

[3] = molecular target: T3, GFRα3/RET (Homo sapiens, UniProt O60609+P07949); assay: Ga14-Elk/Ga14-Luc reporter in RET-3T3 fibroblasts transfected with GFRα3; format: cell-based; details: RET-3T3, 50 ng/ml for 6-8 hours, FIG. 10A
T3 construct: a fragment containing the complete coding region of human GFRα3 was PCR-amplified from a human pituitary cDNA library; expressed in transfected cells; host or cells: MG87 fibroblasts stably expressing human RET (RET-3T3), transiently transfected with pCB6-GFRα3
Protocol: Thus, to directly test which receptor combinations can form functional receptors for artemin, expression plasmids for the individual GFRA coreceptors together with the Ga14-Elk/Ga14-Luc reporter system were transiently transformed into fibroblasts that stably express RET. […]
as §1

T1 sequence (Q62997 25-430 limits assumed): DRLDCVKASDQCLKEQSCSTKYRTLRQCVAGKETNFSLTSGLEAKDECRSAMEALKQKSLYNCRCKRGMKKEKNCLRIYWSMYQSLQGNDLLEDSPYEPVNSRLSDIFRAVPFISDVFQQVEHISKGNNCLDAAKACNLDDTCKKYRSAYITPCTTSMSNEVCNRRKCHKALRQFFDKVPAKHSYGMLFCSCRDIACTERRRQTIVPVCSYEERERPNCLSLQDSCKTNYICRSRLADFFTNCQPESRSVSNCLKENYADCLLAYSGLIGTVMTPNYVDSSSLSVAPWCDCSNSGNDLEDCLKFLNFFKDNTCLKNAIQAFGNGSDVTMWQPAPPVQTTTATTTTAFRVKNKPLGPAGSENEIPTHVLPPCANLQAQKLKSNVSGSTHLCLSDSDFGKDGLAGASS
T1 sequence (P07949 29-1114): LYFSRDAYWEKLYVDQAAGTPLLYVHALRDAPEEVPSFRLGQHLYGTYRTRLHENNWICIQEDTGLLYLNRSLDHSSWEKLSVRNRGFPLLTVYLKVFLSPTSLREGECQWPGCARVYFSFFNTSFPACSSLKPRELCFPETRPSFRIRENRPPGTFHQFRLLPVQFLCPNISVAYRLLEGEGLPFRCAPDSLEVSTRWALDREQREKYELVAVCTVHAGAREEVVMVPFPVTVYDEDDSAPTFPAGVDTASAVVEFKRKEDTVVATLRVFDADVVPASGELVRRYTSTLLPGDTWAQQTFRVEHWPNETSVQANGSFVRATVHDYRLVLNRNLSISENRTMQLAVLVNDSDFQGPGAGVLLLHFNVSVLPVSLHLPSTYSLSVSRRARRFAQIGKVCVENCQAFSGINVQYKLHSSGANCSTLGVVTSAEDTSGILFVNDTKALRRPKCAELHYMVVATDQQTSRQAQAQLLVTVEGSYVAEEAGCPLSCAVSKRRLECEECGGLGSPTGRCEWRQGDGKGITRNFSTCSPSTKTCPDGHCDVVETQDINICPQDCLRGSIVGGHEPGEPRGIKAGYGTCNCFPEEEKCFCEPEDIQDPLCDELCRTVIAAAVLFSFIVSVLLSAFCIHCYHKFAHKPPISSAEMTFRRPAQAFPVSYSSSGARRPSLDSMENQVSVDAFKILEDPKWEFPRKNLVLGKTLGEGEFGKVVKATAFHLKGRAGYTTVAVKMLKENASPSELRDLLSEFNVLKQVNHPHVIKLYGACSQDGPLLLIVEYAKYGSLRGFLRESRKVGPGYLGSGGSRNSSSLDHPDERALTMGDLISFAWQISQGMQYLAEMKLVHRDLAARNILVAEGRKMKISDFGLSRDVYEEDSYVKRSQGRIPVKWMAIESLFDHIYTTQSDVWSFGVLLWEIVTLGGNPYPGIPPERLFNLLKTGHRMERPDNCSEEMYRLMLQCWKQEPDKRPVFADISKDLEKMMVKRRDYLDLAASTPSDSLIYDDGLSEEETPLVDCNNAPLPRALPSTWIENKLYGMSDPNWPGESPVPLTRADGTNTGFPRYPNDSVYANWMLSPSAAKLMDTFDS
T2 sequence (G3V9H8 24-1115): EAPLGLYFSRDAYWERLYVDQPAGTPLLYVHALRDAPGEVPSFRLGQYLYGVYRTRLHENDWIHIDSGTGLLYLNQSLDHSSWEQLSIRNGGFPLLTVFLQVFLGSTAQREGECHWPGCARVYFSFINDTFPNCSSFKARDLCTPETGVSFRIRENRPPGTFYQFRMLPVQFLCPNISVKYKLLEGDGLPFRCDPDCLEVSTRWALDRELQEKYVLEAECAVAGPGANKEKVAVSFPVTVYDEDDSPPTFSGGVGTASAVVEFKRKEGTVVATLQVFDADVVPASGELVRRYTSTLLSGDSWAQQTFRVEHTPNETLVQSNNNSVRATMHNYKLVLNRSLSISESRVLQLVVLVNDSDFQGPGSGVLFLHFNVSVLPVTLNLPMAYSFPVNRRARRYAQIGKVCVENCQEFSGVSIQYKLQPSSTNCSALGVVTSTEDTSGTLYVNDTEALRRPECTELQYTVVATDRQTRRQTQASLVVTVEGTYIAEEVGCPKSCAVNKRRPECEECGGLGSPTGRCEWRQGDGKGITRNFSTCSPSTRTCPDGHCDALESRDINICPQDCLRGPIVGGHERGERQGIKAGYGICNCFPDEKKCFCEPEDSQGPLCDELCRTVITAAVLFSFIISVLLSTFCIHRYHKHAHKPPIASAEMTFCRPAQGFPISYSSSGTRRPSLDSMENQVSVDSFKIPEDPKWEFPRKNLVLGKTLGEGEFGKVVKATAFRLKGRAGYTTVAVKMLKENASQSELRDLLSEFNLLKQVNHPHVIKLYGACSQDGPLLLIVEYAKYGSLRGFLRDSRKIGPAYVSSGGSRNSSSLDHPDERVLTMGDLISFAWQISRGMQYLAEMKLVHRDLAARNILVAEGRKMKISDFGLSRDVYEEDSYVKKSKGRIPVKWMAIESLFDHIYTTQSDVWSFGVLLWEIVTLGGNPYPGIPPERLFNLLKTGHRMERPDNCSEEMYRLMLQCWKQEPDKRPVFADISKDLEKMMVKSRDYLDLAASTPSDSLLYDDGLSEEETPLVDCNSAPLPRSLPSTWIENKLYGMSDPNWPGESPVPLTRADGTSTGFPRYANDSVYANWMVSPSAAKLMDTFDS
T3 sequence (O60609 32-374 limits assumed): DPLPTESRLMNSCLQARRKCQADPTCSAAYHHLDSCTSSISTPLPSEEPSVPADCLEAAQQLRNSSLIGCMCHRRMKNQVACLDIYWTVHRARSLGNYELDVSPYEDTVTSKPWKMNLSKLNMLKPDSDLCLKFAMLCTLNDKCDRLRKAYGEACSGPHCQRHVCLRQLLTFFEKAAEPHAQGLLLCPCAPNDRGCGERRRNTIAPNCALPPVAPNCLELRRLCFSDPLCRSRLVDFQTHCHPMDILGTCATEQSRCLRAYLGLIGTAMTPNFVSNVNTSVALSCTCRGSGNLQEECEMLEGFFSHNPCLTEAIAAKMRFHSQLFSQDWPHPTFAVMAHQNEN
T3 sequence (P07949 29-1114): as the sequence (P07949 29-1114) above

Molecule | activation of RET signaling in cells expressing GFRα1/RET (luciferase reporter) [1] | degree of RET activation in cells expressing GFRα1/RET compared with GDNF ([1]; RET-3T3, 50 ng/ml) | downstream signaling (activation of the MAP kinase pathway) in SCG neurons [2] | tyrosine-phosphorylation of RET in SCG neurons [2] | activation of RET signaling in cells expressing GFRα3/RET (luciferase reporter) [3]
artemin: recombinant mature human artemin (FIG. 3A, SEQ ID NO:3) with 8-histidine tag, produced in E. coli; GDNF family neurotrophic factor | able to activate RET in cells expressing GFRα1/RET | to a lesser degree than GDNF | effective in eliciting downstream signaling | induced tyrosine-phosphorylation of RET | able to activate GFRα3/RET
B1 | activated RET signaling |  |  | induced tyrosine-phosphorylation of RET | not GFRα3/RET
